Data as given in patent publication US20240247066A1 (published 2024).
Each block holds one binder with its values, some of them ahead of it.

Assays:
NY-ESO1/A2 = NY-ESO1/A2 (;human, UniProt A*02:01, biotin on the biotinylation tag (BirA)); assay: SPR
Trp2/H-2Kb = Trp2/H-2Kb (;mouse, biotin on the biotinylation tag (BirA)); assay: SPR

Kd (NY-ESO1/A2): 2 nM
B1: N5 (scFv)
chain: EVQLLESGGGLVQPGGSLRLSCAASGFTFSTYQMSWVRQAPGKGLEWVSGIVSSGGSTAYADSVKGRFTISRDNSKNTLYLQMNSLRAEDTAVYYCAGELLPFYGMDYWGQGTTVTVSQSELTQPRSVSGSPGQSVTISCTGTLRDVGGYNYVSWYQQHPGKAPKLIIHDVIERSSGVPDRFSGSKSGNTASLTISGLQAEDEADYYCWSAAMAYGVFGTGTDVTVL

Kd (Trp2/H-2Kb): 2.5 nM
B2: IgG2a #13 (antibody, V domains shown)
VH: EVLLQQSGPELVKPGASVKIPCKASGYTFTDYYMDWVKQSHGKSLEWIGLINPNNGGTVYNQKFKGKATLTVDKSSSAAYMEVRSLTSEDTAVYYCARKPYTGHPAWFAYWGQGTLVTVSA
VL: DIQVTQSSSSFSVSLGDRVTITCKASEDIYNRLAWYQQKPGNAPRLLISGATSLETGVPDRFSGSGSRKDYTLIITSLQTEDVATYYCQQYYAFPLTFGAGTKLELK
